Values quoted from earlier work, collected in article PMC7710720.

Molecular target: Neurotensin (Homo sapiens) (UniProt P30990)

In the case of “Neurotensin receptor 2 (from UniProt O95665)”, the Kd is listed as 6 nM.
